This passage reports fold PP2A-B56 bound against wt FoxO3 and Kd results from PMC7327492.

For assay [1], the target named is YFP-FoxO3 H-C. As to the kind of experiment: co-IP; YFP-FoxO3 constructs transfected into HeLa cells, purified using YFP resin, PP2A-B56 binding determined by Western blotting. In general terms: A western blot detects proteins with antibodies after separation by electrophoresis.
The target of assay [2] is YFP-FoxO3 L-C. Described as above.
The target of assay [3] is YFP-FoxO3 I-C. Described as above.
In assay [4] the target is Recombinant B56α (UniProt Q15172). As to the kind of experiment: ITC; purified full-length recombinant B56α and synthetic ADAM17 peptides. (ITC needs no label: the signal is the heat of the interaction.)

Chain of PP2A-B56 (endogenous holoenzyme of HeLa cells) (Q15172 whole entry): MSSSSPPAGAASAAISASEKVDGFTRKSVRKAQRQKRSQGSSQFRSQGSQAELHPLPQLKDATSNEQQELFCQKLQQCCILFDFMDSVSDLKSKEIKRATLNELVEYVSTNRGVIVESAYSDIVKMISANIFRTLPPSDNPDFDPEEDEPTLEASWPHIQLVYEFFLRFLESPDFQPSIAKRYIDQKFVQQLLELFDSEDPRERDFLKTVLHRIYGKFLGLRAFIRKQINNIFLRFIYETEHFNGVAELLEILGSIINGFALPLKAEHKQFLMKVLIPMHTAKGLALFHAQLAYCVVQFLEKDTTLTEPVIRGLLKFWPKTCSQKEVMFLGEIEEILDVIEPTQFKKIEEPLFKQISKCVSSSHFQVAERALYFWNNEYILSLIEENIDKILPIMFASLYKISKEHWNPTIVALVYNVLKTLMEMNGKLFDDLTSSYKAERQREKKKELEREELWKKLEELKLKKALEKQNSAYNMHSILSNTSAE
Chain of PP2A-B56 (endogenous holoenzyme of HeLa cells) (P30153 whole entry): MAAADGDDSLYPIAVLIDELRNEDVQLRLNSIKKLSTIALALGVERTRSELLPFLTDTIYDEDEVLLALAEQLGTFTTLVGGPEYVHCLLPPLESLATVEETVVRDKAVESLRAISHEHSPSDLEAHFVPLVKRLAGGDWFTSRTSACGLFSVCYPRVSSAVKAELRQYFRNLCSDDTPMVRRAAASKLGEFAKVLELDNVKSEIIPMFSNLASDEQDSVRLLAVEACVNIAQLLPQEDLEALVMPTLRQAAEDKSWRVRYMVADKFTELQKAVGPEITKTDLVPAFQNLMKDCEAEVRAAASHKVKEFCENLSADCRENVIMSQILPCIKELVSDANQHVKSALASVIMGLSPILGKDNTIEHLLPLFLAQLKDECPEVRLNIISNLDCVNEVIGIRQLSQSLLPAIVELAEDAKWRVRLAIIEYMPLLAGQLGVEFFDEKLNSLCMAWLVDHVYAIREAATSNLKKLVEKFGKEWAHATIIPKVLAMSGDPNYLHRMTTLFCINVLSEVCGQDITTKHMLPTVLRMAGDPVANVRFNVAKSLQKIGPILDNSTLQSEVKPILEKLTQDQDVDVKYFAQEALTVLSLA
Chain of PP2A-B56 (endogenous holoenzyme of HeLa cells) (P67775 whole entry): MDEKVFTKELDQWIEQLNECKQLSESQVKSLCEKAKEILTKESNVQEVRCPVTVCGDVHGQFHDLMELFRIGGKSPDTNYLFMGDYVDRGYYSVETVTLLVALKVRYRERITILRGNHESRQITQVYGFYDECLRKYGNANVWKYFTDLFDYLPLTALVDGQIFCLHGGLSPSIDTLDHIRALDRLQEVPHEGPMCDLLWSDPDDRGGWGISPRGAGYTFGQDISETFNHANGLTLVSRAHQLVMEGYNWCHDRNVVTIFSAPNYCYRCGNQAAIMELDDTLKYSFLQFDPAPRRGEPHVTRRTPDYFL

Regarding “PP2A-B56 (endogenous holoenzyme of HeLa cells) (from UniProt Q15172 1-486; P30153 1-589; P67775 1-309) (complex)”, the values for the fold PP2A-B56 bound against wt FoxO3 in assay [1], in assay [2] and in assay [3] were 10 fold, 0.5 fold and 4 fold, respectively.

In the case of “synthetic ADAM17 peptide engineered for optimal binding (LDTIQEEE)”, the Kd in assay [4] is 900 nM.

The Kd is the equilibrium constant for the complex coming apart.
